From US20250034594A1, “RNA-GUIDED GENOME RECOMBINEERING AT KILOBASE SCALE” (THE BOARD OF TRUSTEES OF THE LELAND STANFORD JUNIOR …, priority 2021, published 2025)

B1: SSAP_251: SEQ ID NO: 420; Hathewaya proteolytica (protein, listed as Hathewaya proteolytica)
chain: ADSKKELILKESYSVLDRLIETKISAMPKDFNRTRFLQNCMTVLQDTKDIEKCQPISVARTLLKGAFLGLDFFQKECYAIPYGGTLQFQTDYKGETKMAKKYSIRPIKDIYAKVVREDDLFEEEIKEGQQFVNFKPIPFSDKPIIGAFAVVLYQDGGMEYETMSKTQIEGIRDNFSKMKNGLMWTKTPEEAYKKTVLRRLTKKIEKDFDTIEQAKTYEETSDSEFKKEEKCNEKSVFDVEYSEVESEELEQQTMLENSPFGGEQ
B2: SSAP_140: SEQ ID NO: 309; Staphylococcus equorum (protein, listed as Staphylococcus equorum)
chain: ATNETLKQKVVERKPNGVKEQSPKTQLNHLLKKMAPEIQRALPKHMDSDRMARIAMTAVSNTPKLLECDQMSFIAALMQASQLGVEPNTGLGQAYLIPYAGKVQFQLSYKGLIDLATRSGQYKSIYAHEVYTNDEFEYRYGLFKDLIHIPSQEPEGNPIGYYAVYHLKNGGYDFVYWTRERVDKHAKEFSQAVQKGWTSPWITNYDAMAKKTVLKEVLKYAPKSIEMNKAVENDSTIKEEIDKDMSTVIDVTDYSEVEEQESLETGGQTSK
B3: SSAP_99: SEQ ID NO: 268; Pseudomonas stutzeri (protein, listed as Pseudomonas stutzeri)
chain: STENVAPFSQKDMQQATGQQVKPRSPADSLAAMLASPKMKAQFAAALPKHMTAERMARIVTTEIRKTPALVKCDQHSFLGSVIQCAQLGLEPGNSLGHAYLLPYGNQVQLIIGYRGMIDLARRSGQIVSLSARTVREHDEFDYQLGLHEDLTHKPFEGEHAGEITHVYAVARLQGGGVQFEVMSKAQVEAVRAQSKAGKSGPWVSHWEEMAKKTVIRRLFKYLPVSVEIQRAVTLDEAAEAGLPQGNEYVFDGDFEVVNDASGAQQ
B4: SSAP_24: SEQ ID NO: 193 (protein)
chain: TNNQIVEAKGDFLTNPQLLNSGIIRKYLDPQGKASDEELAYFIAQAKAQNLNPFTKEIYFIKYGTQPAQIVTAKSAFEKKADSHPQFDGKEAGVIYLMDGEIKYSKGAFIPKGAEILGGWAKVYRKDRTYPTETEVSFEEYDNSKIRARVKELTQQGKDVTYPVMNSYGKPIGENNWDTMPCVMIRKVALVSAYREAFPAELGASYEADEIQLDNTPKDVTPQESREDVVARKMAEIEQFNKEQEANHADPEPTQNEDPIQGELLDGELEY
B5: SSAP_248: SEQ ID NO: 417; Peptoniphilus senegalensis (protein, listed as Peptoniphilus senegalensis)
chain: TNQIARKPVNEIKNVLSVPSVRNLFDNALADNAGAFVSSLIDLYGGDSYLQNCEPKDVVMEALKAATLKLPINKNLGFGYVVPFKNKNGKLVPTFIIGYKGLIQLAMRTGQYKAINSGIIYEGMEIKEDVLRGTLEIKGSKQSEKIKGYFAYFQLINGFEKALYMDVEEAADWGRKYSKSFAKGPWTTEFDAQAQKTCLRRLLSKYGVLSTEMQRLEKTEEDVDIAVGTIENNAVEELNIPSSQADYIVDEETGEILDDEEIVAPF
B6: SSAP_61: SEQ ID NO: 230 (protein)
chain: ATSLKRAVTGDGKPATVQQLLTNPKIKSQIALALPQHLTPERLTRIVLTEIRRTPALAKCKPESLLAAVMQCAQLGLEPGGSLGHAWLMPFKNEVQFIIGYRGMIDLARRSGQVLSIEARGVYESDTFHVSFGLEPDLTHQPDWDPADRGKLAFVYAVARLKDGGFQFDVMSRAEVEKIRAQSPAGKSGPWVTHFEEMAKKTVIRRLFKYLPVSVEMARAVGLDEAAERGEQSDAIDADCVIESEEEATPEEKGDSAA
B7: SSAP_110: SEQ ID NO: 279; Aneurinibacillus tyrosinisolvens (protein, listed as Aneurinibacillus tyrosinisolvens)
chain: SDLKEKLEKRANETEAAPPSPAQTIAAYLKRMEPEIARALPKHMDVERLTRIALTTIRTNPRLLECTVPSLLGAVMQAAQLGLEPGLLGQCYIIPHGREATFIIGYKGMIDLARRSGNIKSIYAHDVRENDEFEYEYGLHPFLKHRPAMTDRGKFIGVYAVAHFNDGGYQFEFMPYEEIERRKLRSRSYKNGPWVTDYEEMAKKTVIRHMFKYLPLSVEIMRSAAQDETVRPDLTSDPVSIYERPIEGKIITAEDVQPEEIPNVPDAEQGDV
B8: SSAP_168: SEQ ID NO: 337; Romboutsia lituseburensis (protein, listed as Romboutsia lituseburensis)
chain: SNLKNVLKNQEDKGQGITVNPTYAMKQLMIKMKNDIDLALPKNLSSERFQKVSMSAFNNNEKLQNCEPTTFIAAMMQSAQLGLEPNTPLGQVYLIPHNLNGVDKVQFQVGYKGLLQLAHRSGKLKTLYAHEVKENDEFEIDYGLEQKLIHKPLLKGNRGDVIGYYAVYHLEPSGYSFEFMTYDEVAKHGKKYSKDFEGGIWEKDFDSMAKKTVIKKLLKYAPLSIEMQKAVAFDESVKSSIDSDMLLVESIGE
B9: SSAP_128: SEQ ID NO: 297; Viridibacillus sp. FSL H8-0123 (protein, listed as Viridibacillus sp.)
chain: ATNNALKEQMKQAPSKEVKPEQSLNTLLKRMGPEIQRALPKHMDADRIARIALTAVRNTPKLLDCDQMSFVAALMQSAQLGVEPNTGLGQAYLIPYGKQVQFQLGYKGLIDLAVRSGQYKAIYAHEVYEDDEFSFAYGLHKDLVHVPAPNPTGEPIGYYAVYHLQNGGYDFVYWTRERIDQHAHKFSMAVQKGWTSPWKTNFDAMAKKTVLKEVLKYAPKSIEMQKVVDADETVKTDVSDDMSNVIDVTDYTVMDQEQETIQEPTK
B10: SSAP_85: SEQ ID NO: 254 (protein)
chain: TASKQTDIFSFVSGGEDITITLADIKNYFCANATDQECVLFGQLCKANGLNPWLKEAYLIKYDKNAPAAMVTGKDAYMKRANEHPAFDGYEAGVKVYLPDVGQVEYREGTAYYEDLGEQLIGGYAKVYRKDRSRPYYEEVPLKEYDTKQSKWKTSPATMIRKVALVHALREAFPTNIQGMYDADETPYAADYEGSFREMDDPTPAPSMRGRIAPAPVADPLEDLEADVIEAGDVE
B11: SSAP_247: SEQ ID NO: 416; Ruminococcus sp. CAG: 579 (protein, listed as Ruminococcus sp.)
chain: NERTNLQYAPAPVERFKECLNSHEIKARLKNSLKNNWTQFQTSMLDLYSGDAYLQKCDPMAVALECVKAATLDLPISKSLGFAYVVPYNNVPTFTLGYKGLIQLAQRTGQYRTINADVVYEGEIRGADKLSGMVDLSGERTGDEVVGYFAYFKLINGFEKMIYMTRAEAEKWRDDYSPSAKSKYSPWRTDFDKMALKTCIRRLISKYGIMSVEMQGVMTEEAEPRAAAAAKRAEETVQANANSKVIDIDAAPPAANESPAEAAPQPDF
B12: SSAP_60: SEQ ID NO: 229 (protein)
chain: ASKNEAIEVSPAEIASVKEKPASIVKAEKAKKEPCALVKYEDAEGREVVLTREDIINTISSNPRITDKEIKLFIELARAQKLNPFTREIFITKYGDYPATFIVGKDVFTKRAQSNPLFKGMQAGIIVQRGNAVDQREGSATFGDEMLIGGWCKVYVQGYDVPIYDSVSFNEYAARKTDGTLNAMWASKPATMIRKVAIVHALREAFPSDFQGLYDQSEMGLSGQGGE

Tested on: gene editing with dCas9
Assay: Screen of 322 new SSAP proteins, gene editing activity with dCas9 (Table 5)
Assay type: cell-based
Set-up: dCas9 with SSAP activity: scale not given here
Conditions: not given
Summary of the method: (§1)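 Sequence-mined SSAPs (n=322), synthesized; editing activity screened with Cas9 or dCas9.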

| Molecule | dCas9 with SSAP activity |
| --- | --- |
| B1 | −5.041 |
| B2 | −5.000 |
| B3 | −5.333 |
| B4 | −5.319 |
| B5 | −5.272 |
| B6 | −5.258 |
| B7 | −5.104 |
| B8 | −5.210 |
| B9 | −5.299 |
| B10 | −5.091 |
| B11 | 0.549 |
| B12 | 0.311 |

Same assay, conditions: normalized

| Molecule | dCas9 with SSAP activity (normalized) |
| --- | --- |
| B1 | −0.760 |
| B2 | −0.780 |
| B3 | −0.891 |
| B4 | −0.711 |
| B5 | −0.814 |
| B6 | −0.804 |
| B7 | −1.491 |
| B8 | −0.836 |
| B9 | −0.965 |
| B10 | −1.071 |
| B11 | 0.332 |
| B12 | 0.109 |

Tested on: gene editing with Cas9
Assay: Screen of 322 new SSAP proteins, gene editing activity with Cas9 (Table 5)
Assay type: cell-based
Set-up: Cas9 with SSAP activity: scale not given here
Conditions: not given
Summary of the method: as §1

| Molecule | Cas9 with SSAP activity |
| --- | --- |
| B1 | −0.983 |
| B2 | −1.374 |
| B3 | −3.807 |
| B4 | −3.642 |
| B5 | −0.854 |
| B6 | −1.348 |
| B7 | −2.674 |
| B8 | 0.735 |
| B9 | 0.839 |
| B10 | −0.312 |
| B11 | −2.602 |
| B12 | 0.757 |

Same assay, conditions: normalized

| Molecule | Cas9 with SSAP activity (normalized) |
| --- | --- |
| B1 | −1.345 |
| B2 | −0.848 |
| B3 | −0.873 |
| B4 | −0.681 |
| B5 | −1.210 |
| B6 | −0.539 |
| B7 | −0.477 |
| B8 | 1.158 |
| B9 | 0.272 |
| B10 | −0.125 |
| B11 | −3.388 |
| B12 | 0.560 |

Tested on: gene editing with Cas9 and dCas9
Assay: Screen of 322 new SSAP proteins, activity across all experiments (Cas9 and dCas9, Table 5)
Assay type: cell-based
Set-up: scale not given here
Conditions: not given
Summary of the method: as §1

| Molecule | Activity across all experiments |
| --- | --- |
| B1 | −3.012 |
| B2 | −3.187 |
| B3 | −4.570 |
| B4 | −4.480 |
| B5 | −3.063 |
| B6 | −3.303 |
| B7 | −3.889 |
| B8 | −2.237 |
| B9 | −2.230 |
| B10 | −2.702 |
| B11 | −1.027 |
| B12 | 0.534 |
